Experiment: yeast display, Sf9 membrane polyspecificity reagent, FACS + sequencing; frameworks hold sequencing errors
How it was run: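 Nanobodies from a synthetic yeast display library (Saccharomyces cerevisiae BJ5465), induced 36–48 hours with galactose, were stained 1 hour at 4 °C with 10% biotinylated, detergent-solubilized Sf9 membrane reagent, enriched on streptavidin microbeads, then FACS-sorted. Anti-HA (expression) and streptavidin (reagent binding) fluorescence set low and high (top ~1%) gates. Polyreactivity labels come from the gate of origin. Genes were colony-PCR amplified, MiSeq 2 × 250 sequenced and filtered by CDR length.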

| Sequence | polyreactivity (PSR sort gate) |
| --- | --- |
| QVQLVESGGGLVQAGGSLSLSCAASGNTFPYYAMGWYRPAPGKERELVAAIRAGGGSTYYADSVKGRFTISRDNAKNTVYLQMNSLKPEDTAVYYCNADSDYNQYYLAVIHSILDYWGHGTQVTVSS | low polyreactivity |
| QVQLVESGGGLVQAGGSLSLSCAASGPTFTQNVMGWYRQAPGKERELVAGISSGDITNYADSVKGRFTISRDNAKNTVYLQMNSLKPEDTAVYFCTYYGKSGGYRYTYYYWGQGTQVTVSS | high polyreactivity |
| QVQLVESGGGLVQAGGSLSLSCAASGRIFAYYAMGWYRQAPGKERELVAAISGGGGSTYYADSVKGRFTISRDNAKNTVYLQMNSLKPEDTAVYYCAARYTVYSATGRYYYWGQGTQVTVSS | high polyreactivity |
| QVQLVESGGGLVQAGGSLSLSCAASGRIFPTYTMGWYRQAPGKERELVAAINRGGGSTYYADSVKGRFTISRDIAMNTVYLQMYSLKAEDTAVYYCNARTYYRSYGYDYCGQGTQVTVSS | low polyreactivity |
| QVQLVESGGGLVQAGGSLSLSCAASGRIFRRYAMGWYRQAPGKEREFVAAISYGGGSTYYADSVKGRFTISRDNAKNTVYLQMNSLKPEDTAVYYCNADVPKSLLLYYPWGYGYWGQGTQVTVSS | low polyreactivity |
| QVQLVESGGGLVQAGGSLSLSCAASGRIFVRNSMGWYRQEPGKETELVADITNGGSTNYADSVKGRFTISRDNAKNTVYLQMNSQKPEDTAVYYCAADTLGVYDGDYWGQGTQVTVSS | low polyreactivity |
| QVQLVESGGGLVQAGGSLSLSCAASGRIFVRNTMGWYRQAPGKERELVATISRRGGITYYADSVKGRFTISRDNAKNTVYLQMNSLKPEDTAVYYCAAESYSFWLYDYCGQGTQVTVSS | high polyreactivity |
| QVQLVESGGGLVQAGGSLSLSCAASGRIFYKYAMGWYRQAPGKESELVAAINTSGGRTYYADSVKGRFTISRDNAKNTVYLQMNSLKPEDTAVYYCKAVGSAYTAYDYWGQGTQVTVSS | high polyreactivity |
| QVQLVESGGGLVQAGGSLSLSCAASGRIFYRNAMGWYRQAPGKERELVAGITRGGSTNYADSVKGRFTISRDNAKNTVYLQMNSLKPEDTAVYYCAKAIPAKFYSEAGYDYWGQGTQVTVSS | low polyreactivity |
| QVQLVESGGGLVQAGGSLSLSCAASGRIFYRYAMGWYRQAPVKERELVAAISGSVGSTYADSVKGRFTISRDNAKNTVYLQMISLKPEDTAVYYCARETYRRYGAYDYWGQGTQVTVSS | low polyreactivity |
| QVQLVESGGGLVQAGGSLSLSCAASGRIFYVNTMGWYRQAPGKERELVATISSAASTNYADSVKGRFTISRDNAKNTVYLQMNSLKPEDTAVYYCNASRLSRLSALSGFYSWGQGTQVTVSS | low polyreactivity |
| QVQLVESGGGLVQAGGSLSLSCAASGRNFAYYAMGWYRQAPGKERELVAGISQRGSRTYYADSVKGRFTISRDNAKNTVYLQMNSLKPEDTAVYYCAARDRRSVTMDYWGQGTQVTVSS | high polyreactivity |
| QVQLVESGGGLVQAGGSLSLSCAASGRNFTIYAMGWYIQAPGKEREMVAGITRSGGRTYYADSVKGRFTISRDNAKNTVYLQMNSLKPEDTAVYYCNRVFYSGYRGQGHSYESWGQGTQVTVSS | high polyreactivity |
| QVQLVESGGGLVQAGGSLSLSCAASGRTFGAYAMGWYRQAPGKERELVATITVSGGSTYYADSVKGRFTISRDNAKNTVYLQMNSLKREDTAVYYCAAEWYPYPWGYGYWGQGTQVTVSS | low polyreactivity |
| QVQLVESGGGLVQAGGSLSLSCAASGRTFSANTMGWSRQAPGKERELVAAISKSGGSTYYADSVKGRFTISRDNAKNTVYLQMNSLKPEDTAVYYCAARTSGYWYSYGSWGQGTQVTVSS | high polyreactivity |
| QVQLVESGGGLVQAGGSLSLSCAASGRTFWLNSMGWYRQAPGKERELVATISSSSGSTTYADSVKGRFTISRDNAKNTVYLQMNSLKPEDTAVYYCAADWSDDVPGYDYWGQGTQVTVSS | low polyreactivity |
| QVQLVESGGGLVQAGGSLSLSCAASGRTFYRNAMGWYRQAPGKERELVAAISSDDSTNYADSVKGRFTISRDNAKNTVYLQMNSLKPEDTAVYYCNADYYYGYEYDYWGQGTQVTVSS | low polyreactivity |
| QVQLVESGGGLVQAGGSLSLSCAASGRTIAYYAMGWDRQAPGKEMEFVAAISSTGTSTYYADSVKGRFTISRDNAKNTVYLQMNSLKPEDTGVYYCNARVATYRLHSKFYYWGQRTQVTVSS | high polyreactivity |
| QVQLVESGGGLVQAGGSLSLSCAASGRTYYYNAMGWYRQAPGKERELVAAITFSGGTTSYADSEKGRFTISRDNAKNTVYLQMNRLKPEDTEVYYCAARGYWGQGTQVTVSW | high polyreactivity |
| QVQLVESGGGLVQAGGSLSLSCAASGSIFASNTMGWYRPAPGKERELVAGITKIGSSTYYADSVKGRFTISRDNAKNTVYLQMNSLKPEDTAVYYCNAYGPNIYSSRYDYWGQGTQVTVSS | low polyreactivity |
| QVQLVESGGGLVQAGGSLSLSCAASGSIFKFNTMGWSRQAPRKERELVAAISRSGGSTYYADSVKGRFTISRDNAKNNVYLQMNSLKPEDTAVYYCAARQFSGPYVRYGYWGQGTQVSVSS | high polyreactivity |
| QVQLVESGGGLVQAGGSLSLSCAASGSIFPHYAMGWYRQAPGKERELVAAISRSGTSTYYADSVKGRFTISRDNAKNTVYLQMNSLNPEDTAVYYCATGYRRDHDDYWGQGTQVTVSS | high polyreactivity |

| Sequence | polyreactivity (PSR sort gate) |
| --- | --- |
| QVQLVESGGGLVQAGGSLSLSCAASGSIFWYNAMGWYRQAPGKERELVAGITSGGDTNYADSVKGRFTISRDNAKNTFYLQMNSLKPEDTAVYYCNTPSGPGNVGYYRRKWYGYWGQGTQVSVSS | low polyreactivity |
| QVQLVESGGGLVQAGGSLSLSCAASGSIFYYNAMGWYRQAPGKERELVAAITSSAITNYADSVKGRFTISRDNAKNTVYLQMKSRKPEDTAVYYCAGRITTRPRSTRKRVWVDYWGQGTQVTVSS | high polyreactivity |
| QVQLVESGGGLVQAGGSLSLSCAASGSTFDYYAMGWYRQAPGKEWELVADITYSGGSTYYADSVKGRFTISRDNAKNTVYLQMNSLKPEDTAVYYCNAYYTVYTRYDYWGQGTQVTVSS | high polyreactivity |
| QVQLVESGGGLVQAGGSLSLSCAASGSTFNHYAMGWYSPAPGKERELVAAISSRGGSTHYADSVKGRFTISRDNAKNTVYLQMNSLKPEDTAVYDCARDTDPQSSRSSDYDYWGQGTQVTVSS | low polyreactivity |
| QVQLVESGGGLVQAGGSLSLSCAASGSTFRHYAMGGYRQAPGKERELVAAISSRGGSTHYADSVKGRFTISRDNAKNTVYLQMNSLKPEDTAVYYCARDTDTQSSRSSDYDYWGQGTQVNVSS | low polyreactivity |
| QVQLVESGGGLVQAGGSLSLSCAASGSTFWVYAMGWYRQAPGKERELVATISRGGSTNYADSVKGRFTISRDNAKNTVYLQMNSLKPEDTAVYYCAAPRFYGYGYEYWGQGTQVTVSS | low polyreactivity |
| QVQLVESGGGLVQAGGSLSLSCAASGSTFYFNAMGWYRQAPGKERELVATIRSGDSTYYADSVKGRFTISRDNAKNTVYLQMNRLKPEDTAVYYCAAVSTYFSSTFTEYDYWGQGTQVTVST | low polyreactivity |
| QVQLVESGGGLVQAGGSLSLSCAASGSTFYNYAMGWYRQAPGKERELVASITWNGGSTYYADSVKGRFTISRDNAKNTVYLQMNSLKPEDTAVYYCAADWTWTYPYDYWGQGTQVTVSS | low polyreactivity |
| QVQLVESGGGLVQAGGSLSLSCAASGSTYLDYTMGWYIQAPGKERELVAVISYRAGSTYYADSVKGRFTISRDNAKNTVYLLMHSLKPEDTAVYYCNADYYNYWRRRRYVWYESWGQGTQVTVSS | low polyreactivity |
| QVQLVESGGGLVQAGGSLSLSCAASGYIFSSNTMGWYRQAPGKERELVAGITASATITYYADSVKGRFTISRDNAKNTVYLQMNSLKPEDTAVYYCAADPVLGVFKFEYWGQGTQVTVSS | low polyreactivity |
| QVQLVESGGGLVQAGGSLSLSCAASGYIFVPYAMGWYRQAPGKERELVAAISWSTGTTYYADSVKGRFTISRDNAKNTVYLQMNSLKPEDTAVYYCAAEGYDWIYLYYGLGYWGQGTQVTVSS | low polyreactivity |
| QVQLVESGGGLVQAGGSLSLSCAASVSTSLSYDMGWYRQAPGKERELVASITSSGGSTYYADSVKGRFTIARDNAKNTVYLQMKSLKPEDTAVYYCNARSYIYPFSPTSYYRYYWGQGTQVTVSS | high polyreactivity |
| QVQLVESGGGLVQAGGSLSLSCAASVYIFLVYAMGWYRQAPGKERELVAAISSGGSTYYADSVKGRFTISRDNAKNTVYLQMNSLKPEDTAVYYCAKAGLALYAFRDDYWGQGTQVTVSS | low polyreactivity |
| QVQLVESGGGLVQAGGSLSLSCAATGRIFGPYAMGWYRQAPGKERELVATINSGGSTHYADSVKGRFTISRDNAKNTVYLQMNSLKPEDTAVYYCAATSAYGRYRYYYWGQGTQVTVSS | high polyreactivity |
| QVQLVESGGGLVQAGGSLSLSCASSANIFGVYAKGWYRQPPGKERELVAAIRYSTVSTYYADSVKGRFTISRDNAKNTVYLQLHSLKPEDTAVFYCAAQRRLYLPGHYYYWGQGTQVTVSS | high polyreactivity |
| QVQLVESGGGLVQAGGSLSLSCDASGSIFRSNAMGWYRQAPGKERELVAAISRSGGRTYYADSVKGRFTISRDNAKNTVYLQMNSLKPEDTAVYYCAAQVVRSLKYEYWGQGTQVTVSS | high polyreactivity |
| QVQLVESGGGLVQAGGSLSLSFAASGSTFERYAMGWSRQAPGKERELVAAIRASGVRTYYADSVKGRFTISRDNAKNTVNLQMNSLKPEDTAVYYCAAELQRYWGRLYYYWGQGTQVSVSS | high polyreactivity |
| QVQLVESGGGLVQAGGSLSLSSAATGSNFGRNAMGWYRQATGKEREFVAAISQRGGRTYYSDSVKGRFTISRDNAKNTVYLQMNSLKPEETAVYYCAATYTRVPNRFYYWGQGTQVTVSS | high polyreactivity |
| QVQLVESGGGLVQAGGSPRLSCAASGRTFAEYPMGWYRQAPGKERELVAGISWSGGSTYYADSVKGRFTISRDTAKNTVYLQMNSMKPDDTAVYYCAARGWKRGYYIGHYYYWGQGTQVTVSS | low polyreactivity |
| QVQLVESGGGLVQAGGSPRLSCAASGRTFVFKAMGWYRQAPAKERELVAAITDTTGSTYYADSVKGRFTISRDNAKNTVYLQMNSLKPEDTAVYYCNARVYRPFYYWGQGTQVTVSS | low polyreactivity |
| QVQLVESGGGLVQAGGSQRLSCAASGRIFRYYAMGWYRQAPGKERELVAAITWSGGSTYYADSVKGRFTISRDNEKNTVYLQMNSLKPDDTAVYYCTAISYQPFHGDYWGQGTQVTVSS | low polyreactivity |

From the nanobody polyreactivity screen of Harvey et al. (2022)
